US20040018515A1, “Compositions selective for adenosine diphosphate and methods of using same” (priority 2002, published 2004)

How the values were obtained:
[1] = SPA competitive binding of ADP aptamer clones (cold ADP vs other adenosine nucleoside derivatives); settings: competitive binding analysis; FIG. 29
Experimental: NEN flashplates used in the ADP SPA screen and competition binding studies were prepared by incubating the individual wells with 40 pmol of MK08.112A biotinylated capture probe in 22 μl of PBS Buffer: BupH (0.05% tRNA, 0.025% Tween 20) with and shaking at 650 RPM, 15 min. Excess capture probe was removed from the wells by washing with 1×PBS 3 times and inverting plate with force to remove liquid and blotting them dry on paper towels. Crude transcription of RNA transcribed with capture probe sequence (5 μl) in 25 μl 1×PBS was incubated in designated wells with shaking at 650 RPM for 30 min. Excess aptamer was removed by washing with 1×PBS 3 times and blotting as before. Treated wells were incubated with 30 μl of 1 μM ^3H-ADP in 1× Selection Buffer for 30 s with shaking at 650 RPM and then assessed for ADP-mediated signal by quantification on a TopCount, ^3H SPA scintillation counter.
The best ADP binders, e.g., clones 1, 2, 11, 12, 14, and 16 were subsequently tested for ADP/ATP discrimination by competition with either cold ADP or ATP (FIG. 28). Clones such as F01 (clone #11), whose SPA signal was competed off with the lowest concentration of ADP, i.e., the best ADP binder, and correspondingly the highest concentration of ATP, i.e., the worst ATP binder, were considered to be ADP selective.

[2] = SPA KD determination for ADP aptamer F01, nucleoside analogs and mimetics; assay type: binding; settings: SPA competition; KD estimated from IC50; FIG. 30
Experimental: (§1) The specificity of the ADP aptamer clone F01 was characterized using a variety of nucleoside analogues and mimetics as shown in FIG. 30. NEN flashplates used in the ADP assay were prepared as described above using 150 pmol ADP clone F01 ( in 20 μl 1×PBS incubated in designated wells with shaking at 650 RPM for 30 min). Excess F01 aptamer was removed by washing with 1×PBS 3-times and blotting as before. Treated wells were incubated with 30 μl of 1 μM ^3H-ADP in 1× Selection Buffer for 30 s with shaking at 650 RPM and then assessed for ADP-mediated signal by quantification on a TopCount, ^3H SPA scintillation counter. Thereafter, 1 μl of each test compound was added to the appropriate wells and the plate shaken at 650 RPM for 30 s prior to recounting on TopCount, ^3H SPA scintillation counter. Titration of each test compound was continued with subsequent 1 μl additions up to 10 mM final concentration. The dissociation constant KD was estimated from the IC50 of the competitive binding curve.

[3] = ADP SPA screening of ADP aptamer clones; assay type: binding; settings: 1 μM 3H-ADP; vs. clone R0; FIG. 27
Experimental: Mini-prepped plasmid DNA and corresponding sequence (Table 4) were obtained from Lark Technologies. Any sequence that differed by more than two nucleotides from all other ADP aptamer clones was considered to be unique for the purposes of screening. “Unique” clones were PCR amplified from purified plasmid DNA using the original 5′-primer used in the selections (JD18.25B; SEQ ID NO: 17) and a new 3′-primer, 5′-[…]-3′ (JD18.122.A; 200 nM scale, 46-mer) Tm ˜58° C.; SEQ ID NO: 72). This primer adds a 3′-sequence tag to the transcribed RNA molecules which allows the aptamer clones to be immobilized onto the surface of an NEN streptavidin coated flash plate via base pairing with a biotinylated DNA capture oligo (MK08.112A; 5′-biotin-[…]-3′; SEQ ID NO: 73).
NEN flashplates used in the ADP SPA screen and competition binding studies were prepared by incubating the individual wells with 40 pmol of MK08.112A biotinylated capture probe in 22 μl of PBS Buffer: BupH (0.05% tRNA, 0.025% Tween 20) with and shaking at 650 RPM, 15 min. […] Treated wells were incubated with 30 μl of 1 μM ^3H-ADP in 1× Selection Buffer for 30 s with shaking at 650 RPM and then assessed for ADP-mediated signal by quantification on a TopCount, ^3H SPA scintillation counter.
Clones were initially assessed for the ability to yield ADP-mediated signal in the ADP SPA.

[4] = SPA KD determination for ADP aptamer F01, ATP; assay type: binding
Experimental: as §1
This impurity confounds precise determination of ADP aptamer selectivity by SPA competition.

B1: GGACGGATCGCGTGATGACGAGGGGAATGAACACCCCGGACAATCAGACACGGTCATCTCACACACCTCCCTGA (nucleic acid)
chain: GGACGGATCGCGTGATGACGAGGGGAATGAACACCCCGGACAATCAGACACGGTCATCTCACACACCTCCCTGA
modifications: RNA, all phosphodiester, T or U not given here
selectivity for ADP compared to other adenosine nucleoside derivatives (AMP, ATP, cAMP) [1]: highly selective for ADP | KD values of other nucleoside derivatives and mimetics relative to KD for ADP [2]: more than 300 fold | ADP-mediated signal in the SPA screening assay above background signal [3]: more than 2.5 fold | KD for ATP relative to KD for ADP ([4]; SPA competition, KD estimated from IC50): at least 70 fold | selectivity for ADP over ATP relative to what preliminary studies indicated ([4]; after column purification of ATP): approximately 4 fold
